Source: patent publication US10363214B2, “Method for treating atrophic age related macular degeneration” (Allergan, Inc., priority 2008, dated 2019)

Tests used:
[1] = 1.25 to 2.5 mg aqueous bevacizumab into the vitreous cavity; animal and human studies; cited from earlier work
ARPE-19 cells = assay: ARPE-19 cell viability (MTT) assay with polysorbate 80; assay type: cell-based
Description: An experiment was carried out to examine the toxicity of a polysorbate retinal penetrant enhancer to retinal pigment epithelial (“RPE”) cells. Thus, ARPE-19 cells (see Dunn K. et al., ARPE-19, a human retinal pigment epithelial cell line with differentiated properties, Exp Eye Res. 1996 Feb;62(2):155-69) were incubated in vitro in concentrations of polysorbate 80 ranging from 0% to 0.10% w/w and a cell viability assay was performed.
The protocol for this in vitro experiment was as follows: ARPE-19 cells (passage 11 to 23) were seeded the day prior to experimentation in 24 well-plates at 125.000 cells/well in DMEM:F12 medium supplemented with 10% FBS. Time course and dose response were simultaneously performed on ARPE-19 cells. Parameters of incubating solutions such as pH, osmolarity were measured for every concentration. Times of incubation were 24 h, 48 h, 72 h. One negative (non-treated) and one positive control (5 mM H2O2) were included. Non-treated condition was cell culture medium supplemented with serum. 5 mM H2O2 was prepared from 3% H2O2 stock solution (875 mM). Concentrations applied to cells were determined considering several parameters, such as • (a) commonly used concentration in formulation. • (b) limiting concentration to compound solubility. • (c) limiting concentration to applicable viscosity, osmolarity and pH values. In a first approach, the concentrations covered a wide range (Exp.1). After preliminary results, a second set of experiments (Exp.2 to 4) determined more accurately compound concentrations leading to inhibition of 50% of cell viability, based on cell viability assay and morphological aspect. […] Results from MTT assay were expressed as a percentage of cell viability calculated as follows: % cell viability=ODtest/ODcontrol×100. […] Gap concentration bringing to 50% cell viability was therefore determined. Morphological appearance was analyzed by semi-quantitative scoring ranging from 5 to 1, from normal to lethal phenotype respectively.

wet AMD eye = assay: Monthly intravitreal injections in wet AMD eye of patient (paper case examples); assay type: in vivo, human
Source text: A person has age-related macular degeneration and cataracts in both eyes. […] The patient can complain of blurry vision and metamorphopsia in the right eye and examination can reveal visual acuity of 20/400 right eye, 20/32 left eye. Retinal examination can show subfoveal choroidal neovascularization (CNV) (right eye wet AMD) approximately 1 disc area in size with surrounding hemorrhage and edema in the right eye. The fellow left eye can show high-risk features for developing wet AMD such as soft, amorphic appearing drusen that included the fovea but no signs of choroidal neovascularization and can be confirmed by fluorescein angiography (left eye dry AMD).
A person can wake up with blurry vision in the left eye. They can have a history of glaucoma, s/p cataract removal with IOLs (intraocular lenses), and dry AMD in both eyes and can be taking Alphagan P eye drops. The patient's ophthalmologist can examine them and they can be diagnosed with left eye wet AMD and sent immediately to a retinal specialist. The vision can be 20/25 in the right eye and 20/200 in the left eye. Retinal examination can show dry changes in the right eye macula but high risk features such as large drusen and numerous pigmentary changes in the subfoveal region. The left eye macula can show a subfoveal CNV approximately 2 disc areas in size with surrounding macular edema and intraretinal hemorrhages. Fluorescein angiography can confirm the presence of left eye CNV predominantly classic in appearance. […] Since the patient was at high risk for developing CNV in their right eye, and the vision in the left eye may not appreciably improve over the 3 month period, they can receive an intravitrea injection into the right eye of 50 ul comprising 4.8 mg of ranibizumab incorporated into PLGA microspheres, to prophylax against the development of CNV in the right eye. Polysorbate 20 PLGA microspheres with an in vitro release rate of 5 ug/day can also be placed in the formulation to enhance retinal permeability. The microspheres can be placed in a partially cross-linked hyaluronic acid (HA) at a HA concentration of 2.1%. Such a cross-linked HA can be obtained from Allergan Medical (Irvine, Calif.) under the brand names Juvederm Ultra Plus, Juvederm 30, Captique, and Voluma.

Molecule: bevacizumab
- intraocular toxicity [1]: without significant intraocular toxicity

Molecule: polysorbate 80
- polysorbate 80 concentrations associated with declining RPE cell viability (ARPE-19 cells; ARPE-19 cells, 24, 48 and 72 h incubation, also printed as 0.6 mg/ml, FIG. 1): over 0.06%
- polysorbate 80 concentrations associated with cell viabilities of less than 50% (ARPE-19 cells; ARPE-19 cells, 24, 48 and 72 h incubation, also printed as 0.9 mg/ml, FIG. 1): > 0.09%
- total maximum weight of polysorbate in the vitreous at one time (ARPE-19 cells; assuming a vitreous volume of 4 ml in a human eye): ≤ 3.6 mg

B1: ranibizumab (antibody, chains of the INN, looked up, V domains shown)
VH: EVQLVESGGGLVQPGGSLRLSCAASGYDFTHYGMNWVRQAPGKGLEWVGWINTYTGEPTYAADFKRRFTFSLDTSKSTAYLQMNSLRAEDTAVYYCAKYPYYYGTSHWYFDVWGQGTLVTVSS
VL: DIQLTQSPSSLSASVGDRVTITCSASQDISNYLNWYQQKPGKAPKVLIYFTSSLHSGVPSRFSGSGSGTDFTLTISSLQPEDFATYYCQQYSTVPWTFGQGTKVEIK
modifications: Fab
- edema and hemorrhage, right wet AMD eye (wet AMD eye; Example 1, within 4 months): resolution of the edema and hemorrhage
- visual acuity, right wet AMD eye (wet AMD eye; Example 1, within 4 months, baseline 20/400): 20/125
- left eye visual acuity (wet AMD eye) (wet AMD eye; Example 3, 3 month period, baseline 20/200): 20/100
- retinal edema, left wet AMD eye (wet AMD eye; Example 3, over a 3 month period): resolution of the retinal edema
